From US20240287172A1 (SCIRHOM, published 2024)

Biological target: T1, hiR2-FL-F588H-T7 (human, UniProt Q6PJF5 1-856)
T1 sequence: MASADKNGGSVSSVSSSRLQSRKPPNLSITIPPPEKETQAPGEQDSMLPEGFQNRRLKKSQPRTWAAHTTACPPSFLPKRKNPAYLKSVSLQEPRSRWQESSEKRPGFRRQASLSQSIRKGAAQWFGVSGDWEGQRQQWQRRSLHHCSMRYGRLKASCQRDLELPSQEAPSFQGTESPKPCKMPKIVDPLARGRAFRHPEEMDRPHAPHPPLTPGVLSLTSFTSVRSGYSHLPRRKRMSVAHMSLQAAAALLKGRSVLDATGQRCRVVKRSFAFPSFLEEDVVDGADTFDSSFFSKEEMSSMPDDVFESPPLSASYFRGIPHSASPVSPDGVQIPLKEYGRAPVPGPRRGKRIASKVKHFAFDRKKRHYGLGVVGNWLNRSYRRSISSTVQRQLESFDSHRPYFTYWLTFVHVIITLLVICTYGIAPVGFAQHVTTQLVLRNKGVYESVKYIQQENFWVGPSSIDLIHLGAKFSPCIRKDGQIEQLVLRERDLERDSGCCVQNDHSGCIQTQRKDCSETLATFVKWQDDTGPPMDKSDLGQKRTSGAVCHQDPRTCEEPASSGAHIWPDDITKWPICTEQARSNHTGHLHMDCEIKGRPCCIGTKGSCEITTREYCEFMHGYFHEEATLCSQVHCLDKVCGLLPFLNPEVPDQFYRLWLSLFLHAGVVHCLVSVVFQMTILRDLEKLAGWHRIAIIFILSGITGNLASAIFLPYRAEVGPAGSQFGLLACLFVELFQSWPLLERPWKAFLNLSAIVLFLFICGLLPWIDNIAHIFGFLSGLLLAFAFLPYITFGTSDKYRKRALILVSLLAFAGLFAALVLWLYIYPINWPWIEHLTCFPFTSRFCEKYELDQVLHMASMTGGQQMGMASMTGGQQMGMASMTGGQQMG
Assay: FACS, MEF-DKO cells, 3 µg/ml
In short: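 MEF-DKO cells expressing T7-tagged full-length hiR2 point mutants were stained on ice for 1 h with purified antibodies at 3 μg/ml in FACS buffer. Detection used PE-conjugated goat anti-mouse IgG F(ab′)2 (1:100, 1 h on ice), read by flow cytometry; buffer-only wells served as controls.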

B1: antibody 3 (antibody, V domains shown)
VH: QVTLKESGPGILQPSQTLSLTCSFSGFSLTTFAMGIGWVRQPSGKGLEWLAHIWWDGEKYNNPVLKSRLTISKDTSKNQVFLRIANVDTPDTATYYCARISSIYYIIDNWGQGTSVTVSS
VL: DIVLTQSPATLSVTPGHSVSLSCRASQSISNNLHWYQKKSHESPRLLIKYVSQSISGIPSRFSGSGSGTDFTLSINSVETEDFGMYFCQQSYNWPLTFGAGTKLELK
notes: mouse IgG, kappa light chain; also called clone #3; purified antibody 3
loss of binding vs wild type: ≥ 30%
